Measurements reported in patent US20260265360A1, “USE OF ANTI-FAM19A5 ANTAGONISTS FOR TREATING HEARING DISORDERS” (NEURACLE SCIENCE CO., LTD., priority 2023, published 2026).

Legend:
[1] = system: noise-induced hearing loss mouse model; assay: Noise-induced hearing loss mouse model, first antibody dose one day prior to noise exposure; format: in vivo
Method: FIGS. 6A, 6B, 6C, 6D, and 6E show the therapeutic effect of FAM19A5 antagonists on auditory brainstem response (ABR) threshold in a noise-induced hearing loss mouse model. FIG. 6A provides a schematic of the experimental design. As shown, anti-FAM19A5 antibody (1-30) or control human IgG antibody was administered to the mice intravenously once a week (30 mg/kg per dose) for a total of five administrations. The first dose of the antibodies was administered one day before noise exposure. For noise-induced hearing loss induction, the animals were subjected to temporary threshold shift (TTS) of 105 decibels for 30 minutes. ABR (i.e., hearing test) was measured both prior to the initial administration of the antibodies and then at various times after administration. FIGS. 6B, 6C, 6D, and 6E provide comparison of ABR threshold between mice administered with the control human IgG (circle), anti-FAM19A5 antibody (square), or before noise (triangle) at the following time points: (i) before TTS exposure, (ii) 1 day after TTS exposure, (iii) 2 weeks after TTS exposure, (iv) 4 weeks after TTS exposure, and […], respectively. ABR threshold was measured at a frequency ranging from 4 kHz to 64 kHz.
FIGS. 7A, 7B, 7C, and 7D show the therapeutic effect of FAM19A5 antagonists on distortion product […] emission (DPOAE) threshold in a noise-induced hearing loss mouse model. The overall experimental design is the same as that described in FIG. 6A. DPOAE threshold data was measured after antibody administration and: (i) before TTS exposure (FIG. 7A), (ii) 1 day after TTS exposure (FIG. 7B), (iii) 2 weeks after TTS exposure (FIG. 7C), and (iv) 4 weeks after TTS exposure (FIG. 7D). DPOAE threshold was measured at a frequency ranging between about 4 kHz to about 32 kHz.
FIGS. 8A and 8B show the effect of FAM19A5 antagonists on distortion product […] emission (DPOAE) amplitude in a noise-induced hearing loss mouse model. The overall experimental design is the same as that described in FIG. 6A. DPOAE amplitude data was measured after antibody administration at 2 weeks after TTS exposure. FIG. 8A provides a comparison of the average DPOAE amplitude value as a function of different noise level for the following groups: (i) before noise (triangle), (ii) control antibody treated (circle), and (iii) anti-FAM19A5 treated (square). FIG. 8B provides a spectral level profile for each of the groups.
FIGS. 11A and 11B show the effect of FAM19A5 antagonists on ABR I/O function in a noise-induced hearing loss mouse model. The overall experimental design is the same as that described in FIG. 6A. FIG. 11A provides wave I amplitude before noise (left graph) and at 2 weeks after noise (right graph).
FIG. 11B provides wave I amplitude at 4 weeks after noise. For each of FIGS. 11A and 11B, the following groups of animals are shown: (i) control antibody treated (circle) and (ii) anti-FAM19A5 antibody treated (square). For comparison purposes, wave I amplitude before noise exposure is also provided at the 2 weeks and 4 weeks timepoints (“BN”).
FIGS. 12A and 12B provide immunohistochemistry (IHC) analysis of the therapeutic effects of anti-FAM19A5 antibody (1-30) and control human IgG antibody administration in the middle cochlear region 8 weeks after temporary threshold shift (TTS) (i.e., noise induction).
To assess whether the FAM19A5 antagonists described herein can treat hearing loss, a noise-induced hearing loss mouse model was used. Briefly, for hearing loss induction, the animals were exposed to a temporary threshold shift (TTS) of 105 decibels for 30 minutes. An anti-FAM19A5 antibody (1-30 antibody) or a control human IgG antibody was intravenously administered to C57BL/6 mice (8 weeks old) once weekly for 5 total administrations (30 mg/kg per dose). […] To assess the effect on hearing loss, ABR threshold, DPOAE threshold, and/or DPOAE amplitude were measured at various time points (see “hearing test” in FIG. 6A). […]

[2] = system: inner hair cells of mouse cochlear explant; assay: Reversal of FAM19A5-induced inhibition of synaptogenesis (CtBP2 puncta); format: cell-based; conditions: 1 μM FAM19A5 protein plus anti-FAM19A5 antibody, treated 1 DIV, stained 2 DIV
Method: Cochlear explant were cultured in medium consisting of plating media, which consist of Neurobasal media (Invitrogen), 1% N2 supplement, and 10 μg/mL Ampicillin with culture media with additional 1% FBS.
Postnatal day 4-5 (P4-5) C57BL/6 mice were sacrificed for inner ear dissection. Mouse head was bisected, and brain tissue was removed. Cochlea was carefully separated the from the extraneous bones in ice-cold HBSS (5 mM HEPES/1.3 mM CaCl2), 0.9 mM MgCl2, pH 7.4) or External solution (1.2 mM CaCl2), 1 mM MgCl2, 5 mM HEPES in HBSS). Then the stria vascularis and spiral bone plate was removed, and cochlea was cut into two to three sections. […]
Mouse cochlear explant cultures were treated with FAM19A5, FAM19A5 combined with a FAM19A5 antagonist (e.g., described herein, e.g., 1-30 antibody), or a FAM19A5 antagonist (e.g., described herein, e.g., 1-30 antibody) alone at 1 DIV to determine the level of synaptogenesis at 2 DIV by immunostaining CtBP2, a ribbon synapse marker. To quantify the number of CtBP2 puncta of individual inner hair cells, z-stack confocal images were exported in “multi-page” and the number of CtBP2 puncta from each individual inner hair cells were measured using ROI manger and multi-point tool from Fiji (Image J). Number of CtBP2 puncta from five individual inner hair cells were counted per image and 3 z-stack images were measured from each treatment group. […]

B1: 1-30: anti-FAM19A5 antibody, de-immunized variant of 3-2; VH SEQ ID NO: 235, VL SEQ ID NO: 240 (antibody, V domains shown)
VH: AVTLDESGGGLQTPGGALRLSCKASGFDFESFNMFWVRQAPGKGLEYVSQISSSEEDENYAPAVKGRATISRDNGQSTLYLQMNSLRAEDTGTYYCAKSSYDCPYGHCSSGVDSAGEIDAWGHGTEVIVSS
VL: ALTQPSSVSANPGETVKITCSGGGSEEEQYYYGWYQQKPGSAPVTLIYQDEERPSDIPSRFSGSTSGSTATLTITGVQAGDEADYYCGSWDSEDEDHFGAGTTLTVL
modifications: Low-PI VH, 1-30 VH, 1-17 VH, 1-32 VH, 4-11 VH, 6-10 VH; 1-30 VL
DPOAE amplitude vs control antibody ([1]; 2 weeks after TTS exposure, about 18 kHz frequency): higher DPOAE amplitude | number of ribbon bodies per cell in IHC and OHC vs hIgG ([1]; 8 weeks after TTS): increased number of ribbon bodies per cell | ABR threshold values vs values prior to TTS exposure ([1]; all time points assessed after TTS, 30 mg/kg i.v. weekly x5, first dose one day before noise): comparable to corresponding values prior to the TTS exposure | DPOAE threshold values vs control IgG antibody ([1]; before and 1 day, 2 weeks, 4 weeks after TTS, 30 mg/kg i.v. weekly): no noticeable differences | increase in ABR threshold after TTS exposure, vs control antibody ([1]; day 1 post TTS (105 dB, 30 min), 30 mg/kg i.v. weekly x5, first dose one day before noise): much more dramatic in animals treated with the control antibody | ABR wave I amplitude vs control antibody ([1]; four weeks post noise exposure): noticeable differences were observed | expression of CtBP2 (cochlear ribbon synapse marker) in the IHC vs control antibody ([1]; middle cochlear region, 8 weeks after TTS): noticeable increase | ABR wave I amplitude vs control antibody ([1]; two weeks post noise exposure): noticeable differences were observed | number of CtBP2 puncta in inner hair cells [2]: increased (as compared to the FAM19A5 protein alone group) and comparable to that of the control group
